{
  "source": "patent US20040132096A1",
  "about": "(GlaxoSmithKline, published 2004)",
  "binders": {"B1": {"name": "Asp2/BACE-myc (enzyme, not shown: small tags and cut ends)", "chain": "ETDEEPEEPGRRGSFVEMVDNLRGKSGQGYYVEMTVGSPPQTLNILVDTGSSNFAVGAAPHPFLHRYYQRQLSSTYRDLRKGVYVPYTQGKWEGELGTDLVSIPHGPNVTVRANIAAITESDKFFINGSNWEGILGLAYAEIARPDDSLEPFFDSLVKQTHVPNLFSLQLCGAGFPLNQSEVLASVGGSMIIGGIDHSLYTGSLWYTPIRREWYYEVIIVRVEINGQDLKMDCKEYNYDKSIVDSGTTNLRLPKKVFEAAVKSIKAASSTEKFPDGFWLGEQLVCWQAGTTPWNIFPVISLYLMGEVTNQSFRITILPQQYLRPVEDVATSQDDCYKFAISQSSTGTVMGAVIMEGFYVVFDRARKRIGFAVSACHVHDEFRTAAVEGPFVTLDMEDCGYNIPQTDESTLMTIAYVMAAICALFMLPLCLMVCQWRCLRCLRQQHDDFADDISLLK", "notes": "It was transiently transfected into SHSY5Y-APPswe cells; also called BACE/Asp2"}},
  "key": {"[1]": {"biological_target": "T1, Nogo-A (Homo sapiens (Human), UniProt Q9NQC3 1-1192)", "T1 sequence": "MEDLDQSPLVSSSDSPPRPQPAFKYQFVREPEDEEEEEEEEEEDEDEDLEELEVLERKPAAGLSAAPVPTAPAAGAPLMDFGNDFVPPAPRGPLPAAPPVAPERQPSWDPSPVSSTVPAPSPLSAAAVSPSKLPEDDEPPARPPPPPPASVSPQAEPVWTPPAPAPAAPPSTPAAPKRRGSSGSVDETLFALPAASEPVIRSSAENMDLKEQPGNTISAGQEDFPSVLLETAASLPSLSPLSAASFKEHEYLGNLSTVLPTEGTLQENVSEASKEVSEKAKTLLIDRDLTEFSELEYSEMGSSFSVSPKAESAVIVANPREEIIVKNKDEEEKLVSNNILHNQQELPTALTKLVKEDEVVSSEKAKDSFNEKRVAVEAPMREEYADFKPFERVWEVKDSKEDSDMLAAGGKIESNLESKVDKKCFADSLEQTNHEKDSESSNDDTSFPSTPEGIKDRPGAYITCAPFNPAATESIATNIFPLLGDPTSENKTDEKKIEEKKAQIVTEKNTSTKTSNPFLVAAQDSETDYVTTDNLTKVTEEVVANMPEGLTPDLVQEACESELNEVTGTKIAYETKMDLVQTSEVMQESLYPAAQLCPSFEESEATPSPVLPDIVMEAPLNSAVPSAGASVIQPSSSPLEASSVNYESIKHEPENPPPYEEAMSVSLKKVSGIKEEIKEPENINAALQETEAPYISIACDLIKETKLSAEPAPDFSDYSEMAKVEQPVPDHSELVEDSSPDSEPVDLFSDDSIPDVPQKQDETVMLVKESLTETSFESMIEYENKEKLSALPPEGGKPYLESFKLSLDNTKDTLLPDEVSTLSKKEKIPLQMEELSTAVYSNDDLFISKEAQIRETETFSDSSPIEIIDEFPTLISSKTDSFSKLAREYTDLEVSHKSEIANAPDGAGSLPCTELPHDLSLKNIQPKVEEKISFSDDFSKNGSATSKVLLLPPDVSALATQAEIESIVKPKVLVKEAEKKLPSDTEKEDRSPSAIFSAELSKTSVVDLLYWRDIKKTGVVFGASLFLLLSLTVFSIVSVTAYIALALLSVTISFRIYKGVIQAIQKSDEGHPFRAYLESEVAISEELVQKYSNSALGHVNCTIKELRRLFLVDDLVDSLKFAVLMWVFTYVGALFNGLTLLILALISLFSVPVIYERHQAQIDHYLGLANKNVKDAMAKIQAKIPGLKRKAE", "test": "co-localisation by immunofluorescence in double-transfected SHSY5Y-APPswe cells", "source_text": "(§1) cDNAs encoding Nogo isoforms were transfected into cultured SHSY5Y-APPswe cells and expressed proteins detected in fixed cells with immunohistochemistry. Asp2 was detected using a c-terminal myc epitope (FIG. 3A left panel) while the Nogo-A (FIG. 3A right panel) and B isoforms were detected using isoform specific rabbit polyclonal antibodies (designated 67 and 66 respectively or monoclonal Anti-Nogo-A 6D5 as indicated in the figure legends). These experiments confirm that it is possible to overexpress these proteins in this cellular background and can be used as the basis of an assay for modulators of Nogo influenced APP processing."}, "[2]": {"biological_target": "B1", "test": "co-localisation by immunofluorescence in double-transfected SHSY5Y-APPswe cells", "source_text": "as §1"}},
  "data": [
    {"binder": "B1", "values": [
      {"measurement": "binding result", "setting": "[1]", "value": "binds"}
    ]},
    {"binder": "NogoB (ASY) (other) MEDLDQSPLVSSSDSPPRPQPAFKYQFVREPEDEEEEEEEEEEDEDEDLEELEVLERKPAAGLSAAPVPTAPAAGAPLMDFGNDFVPPAPRGPLPAAPPVAPERQPCWDPSPVSSTVPAPSPLSAAAVSPSKLPQDDEPPARPPPPPPASVSPQAEPVWTPPAPAPAAPPSTPAAPKRRGSSGSVVVDLLYWRDIKKTGVVFGASLFLLLSLTVFSIVSVTAYIALALLSVTISFRIYKGVIQAIQKSDEGHPFRAYLESEVAISEELVQKYSNSALGHVNCTIKELRRLFLVDDLVDSLKFAVLMWVFTYVGALFNGLTLLILALISLFSVPVIYERHQAQIDHYLGLANKNVKDAMAKIQAKIPGLKRKAE", "values": [
      {"measurement": "binding result", "setting": "[2]", "value": "binds"}
    ]}
  ]
}
